The target in assay [1] is T1, human TNFR2 (expressed on cells) (human, UniProt P20333 23-461).
T1 construct: also called hTNFR2; human TNF Receptor 2
T1 sequence: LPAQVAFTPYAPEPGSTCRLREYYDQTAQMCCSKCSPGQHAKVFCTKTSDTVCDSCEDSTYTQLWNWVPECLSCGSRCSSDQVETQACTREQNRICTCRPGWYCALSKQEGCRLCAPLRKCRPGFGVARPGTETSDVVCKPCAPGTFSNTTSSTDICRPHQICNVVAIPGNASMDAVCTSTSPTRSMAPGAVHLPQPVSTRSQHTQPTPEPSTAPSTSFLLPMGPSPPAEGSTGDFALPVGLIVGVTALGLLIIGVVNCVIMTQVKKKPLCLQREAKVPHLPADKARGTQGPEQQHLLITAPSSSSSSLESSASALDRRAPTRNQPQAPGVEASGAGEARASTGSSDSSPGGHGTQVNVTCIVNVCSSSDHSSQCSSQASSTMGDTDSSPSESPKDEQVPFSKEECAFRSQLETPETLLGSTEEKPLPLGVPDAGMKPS
Description: flow cytometry competition, CHO cells with human TNFR2, antibody 0.625 µg/mL, Biotin-hTNFα 0.5 µg/mL. The procedure:
(§1) 30 μl of Biotin-hTNFα (Acro Biosystems, Cat #: TNA-H82E1) was added to each well (with a final concentration of 0.5 μg/mL in each well). The cells with Biotin-hTNFα and the antibodies were incubated at 4° C. for 30 minutes.
(§2) The signals for AF647 and PE were determined by flow cytometry (Thermo Attune NX).
For orientation: In flow cytometry, cells or beads pass a laser one at a time.

For assay [2], the target named is T1, human TNFR2 (expressed on cells). Description: flow cytometry competition, CHO cells with human TNFR2, antibody 10 µg/mL, Biotin-hTNFα 0.5 µg/mL. Here is the method:
as §1, §2

For assay [3] the target is unchanged. Description: flow cytometry competition, CHO cells with human TNFR2, antibody 2.5 µg/mL, Biotin-hTNFα 0.5 µg/mL. Here is the method:
as §1, §2

Assay [4] has as its target T2, ΔCRD3-TNFR2 protein (with CRD3 deletion), on CHO-S cells (human, UniProt P20333 23-461).
T2 construct: also called CHO-SΔCRD3-TNFR2; TNFR2 lacking CRD3
T2 sequence: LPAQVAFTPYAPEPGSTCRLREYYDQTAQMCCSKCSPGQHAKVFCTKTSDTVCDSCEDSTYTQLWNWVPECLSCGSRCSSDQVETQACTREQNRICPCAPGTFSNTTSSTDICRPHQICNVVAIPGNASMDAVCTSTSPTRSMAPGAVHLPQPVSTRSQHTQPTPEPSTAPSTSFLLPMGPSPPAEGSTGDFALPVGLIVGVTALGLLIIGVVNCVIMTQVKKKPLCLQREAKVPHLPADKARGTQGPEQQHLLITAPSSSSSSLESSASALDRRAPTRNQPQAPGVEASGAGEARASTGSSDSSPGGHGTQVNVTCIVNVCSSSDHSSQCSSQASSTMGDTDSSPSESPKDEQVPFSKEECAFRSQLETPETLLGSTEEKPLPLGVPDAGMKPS
Nature of the assay: FACS on CHO-S cells with ΔCRD3-TNFR2, AF647 anti-human IgG Fc secondary. An excerpt:
(§3) TNFR2 has four cysteine rich domains (CRD). In another experiment, FACS was used to detect the binding of anti-hTNFR2 antibodies to TNFR2 proteins with different structural domains. Secondary antibody (Alexa Fluor® 647 AffiniPure F(ab′) 2 Fragment Goat Anti-Human IgG, Fcγ fragment specific, Jackson ImmunoResearch Laboratories, Inc., Cat #: 151524) was used. The fluorescence-labeled secondary antibody can attach to the Fc region of the anti-hTNFR2 antibodies so that the anti-hTNFR2 antibodies that are bound to the ΔCRD cells can be detected by FACS. Specifically, ΔCRD1-TNFR2 protein (with CRD1 deleteion), ΔCRD2-TNFR2 protein (with CRD2 deleteion), ΔCRD3-TNFR2 protein (with CRD3 deleteion) or ΔCRD4-TNFR2 protein (with CRD4 deleteion) were expressed in CHO-S cells respectively, and then the binding between the cells and different anti-hTNFR2 antibodies was detected.

The target in assay [5] is T3, ΔCRD1-TNFR2 protein (with CRD1 deletion), on CHO-S cells (human, UniProt P20333 23-461).
T3 construct: also called CHO-SΔCRD1-TNFR2
T3 sequence: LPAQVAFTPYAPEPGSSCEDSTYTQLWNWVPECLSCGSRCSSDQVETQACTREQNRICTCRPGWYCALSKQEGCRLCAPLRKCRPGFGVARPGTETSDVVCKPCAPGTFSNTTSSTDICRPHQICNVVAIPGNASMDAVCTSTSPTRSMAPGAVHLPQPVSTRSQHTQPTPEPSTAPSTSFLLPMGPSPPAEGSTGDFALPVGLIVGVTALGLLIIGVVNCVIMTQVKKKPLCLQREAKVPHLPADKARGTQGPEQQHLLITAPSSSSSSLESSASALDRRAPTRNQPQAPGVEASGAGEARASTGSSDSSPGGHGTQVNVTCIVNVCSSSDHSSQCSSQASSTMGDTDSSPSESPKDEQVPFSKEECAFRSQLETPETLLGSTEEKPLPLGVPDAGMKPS
Nature of the assay: FACS on CHO-S cells with ΔCRD1-TNFR2, AF647 anti-human IgG Fc secondary.
Excerpt: as §3

B1: BC-1F10-IgG1 (antibody, V domains shown)
VH: QVQLQQWGAGLLKPSETLSLICAVYDGSFSGDYWSWIRQPPGKGLEWIGEINHSGSTNYNPSLKSRVTISVDTSKNQFSLKLSSVTAADTAVYYCARGHWNYDYYYGMDVWGQGTTVTVSS
VL: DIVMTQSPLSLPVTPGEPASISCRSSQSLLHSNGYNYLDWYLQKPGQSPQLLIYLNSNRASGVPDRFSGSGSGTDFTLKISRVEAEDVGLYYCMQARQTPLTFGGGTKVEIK
notes: Human VH/VL joined to the human IgG1 subtype
Take B1: the “percentage of tested cells that had Streptavidin signals” value (from here on “percentage”) in assay [1] turned out to be 60.2%; in assay [2], 51.9%; in assay [3], 54.5%. Besides, the “positive rate of binding (% of cells)” value in assay [4] was 23.1%; in assay [5] it was 55.3%.

B2: BC-1A8-IgG1 (antibody, V domains shown)
VH: QVQLQQSGPGLVKPSQTLSLTCAISGDSVSSNSAAWNWIRQSPSRGLEWLGRTYYRSKWYNDYALSVKSRITINPETSKNQFSLQLNSVTPEDTAVYYCAREDGVGGTKDYFDYWGQGTLVTVSS
VL: DIQMTQSPSSLSASVGDRVTITCQASQDIDNYLNWYQQKPGKAPKLLIYDVSNLEIGVPSRFSGSGSGTDFTFTISSLQPEDIATYYCQQYDNLPLTFGQGTRLEIK
notes: Fully human VH/VL joined to the human IgG1 subtype, kappa light chain (RenMab mice)
For B2, the entries for the “percentage” value in assay [1], in assay [2] and in assay [3] were 58.6%, 12% and 29.9%, respectively. The results for the “positive rate of binding (% of cells)” value in assay [4] and in assay [5] were 0.52% and 64.6%, respectively.

B3: BC-1F4-IgG1 (antibody, V domains shown)
VH: QVQLQQSGPGLVKPSQTLSLTCAISGDSVSSDSSAWNWIRQSPSRGLEWLGRTYYRSKWYNDYTVSVKSRITINPDTSKNQFSLQLNSVTPEDTAVYYCAREDGVGGTKDYFDYWGQGTLVTVSS
VL: DIQMTQSPSSLSASVGDRVTITCQASQDISNYLNWYQQKPGKAPKLLIYDASNLETGVPSRFSGSGSGTDFTFTINSLQPEDFATYFCQQYDNLPITFGQGTRLEIK
notes: as for B1
For the molecule B3, the “percentage” value was 61.9% in assay [1], 18.5% in assay [2] and 59.5% in assay [3]. Moreover, the “positive rate of binding (% of cells)” value in assay [4] is 0.47%; in assay [5] it was 53.1%.

B4: BC-1C3-IgG1 (antibody, V domains shown)
VH: QVQLVESGGGVVHPGKSLRLSCAASGFTFNIYGMHWVRQAPGKGLEWVALISYDGNDKYFADSVKGRFTISRDNSKNTLYLQMNSLRAEDTAVYYCAKAVDTAVVTFFDYWGQGTLVTVSS
VL: EIVMTQSPVTLSVSPGERATLSCRASQSVSSNLAWYQQKPGQAPRLLIYSASTRATGIPARFSGSGSGTEFTLTISSLQSEDLAVYYCQQYSNWPFTFGPGTKVDIK
notes: as for B1
Consider B4, for which the “percentage” value in assay [1] came to 77.3%; in assay [2], 71.1%; in assay [3] it was 81.5%. In addition, the “positive rate of binding (% of cells)” value in assay [4] worked out at 0.81%; in assay [5], 72.6%.

B5: BC-1B6-IgG1 (antibody, V domains shown)
VH: QVQLVESGGGVVQPGRSLRLSCAASGFTFSNFGMHWVRQAPGKGLEWVAVIWYEGSDKYYADSVKGRFTISRDNSKNTLYLQMNSLRAEDTAVYYCARDSSWGFLLYGMDVWGQGTTVTVSS
VL: DVVMTQSPLSLPVTLGQPASISCRSSRSLEYSDGNTYLNWFQQRPGQSPRRLIYKVSNRDSGVPDRFSGSGSGTAFTLKISGVEAEDVGVYYCMQGTHWPPTFGGGTKVEIK
notes: as for B1
For B5, the “percentage” value amounted to 80.4% in assay [1], 75.1% in assay [2] and 87.2% in assay [3].

The values above are taken from patent US20250019454A1 (BIOCYTOGEN PHARMACEUTICALS BEIJING, published 2025).
